Results on 2 molecules are retold here after doi:10.1101/2021.05.24.445441 (bioRxiv, 2021).

For one series, the target named is p75-TM-C257A (human). As to the kind of experiment: NMR cross-correlated relaxation rates.
The series “NMR titration” deals with the molecule itself. The series is described as follows: NMR titration.

No end group written: not given here.

As to p75-TM-C257A (domain or fragment), the stoichiometry N (as a rule, the number of molecules, sites or subunits per partner or assembly) with p75-TM-C257A (human) is 2. For MKKDETPFGVSVAVGLAVFACLFLSTLLLVLNKAGRRNK (domain or fragment, also: 15N-labelled in one titration, unlabelled in the other) [human TrkA-TM], the binding result in the series “NMR titration” is reported as “binds”.
